From patent US20190322730A1

B1: antibody 62F2 (antibody, V domains shown)
VH: DVQLQESGPDLVKPSQSLSLTCTVTGYSITSGYSLHWIRQFPGNKLEWMGYIHYSGSTNYNPSLKSRISITRDTSKNQFFLKLNSVTSEDTATYHCARAWDYLDYWGQGTTLTVSS
VL: DIQMTQSPASLSASVGETVTITCRASENIYSQLAWYQQKQGKSPQLLVYDAKTLAEGVPSRFSGSGSDTQFSLKIISLQPEDFGRYYCHHHFGILYTFGGGTKLEMK
B2: antibody 3D8 (antibody, V domains shown)
VH: EIQLQQSGAELVKPGASVKISCKASGYSFTGYNMNWVKQSHGKSLEWIGNINPYYGSTNYNQKFKGKATLTVDKSSTTAYMQLDSLTSEDSAVYYCARGYYGGNYPFAYWGQGTLVTVSA
VL: DIQMTQSPASLSASVGETVTITCRASENIYSYLAWYQQKQGKSPQLLVYNAKTLAEGVPSRFSGSGSGTQFSLKINSLQPEDFGSYYCQHYYGTPYTFGGGSKVEIK
B3: antibody 63A3 (antibody, V domains shown)
VH: DVQLQESGPGLVKPSQSLSLTCSVTGYSITSGYYWNWIRQFPGNKLEWMGYIRYDGSNNYNPSLKNRISITRDTSKNQVFLKLNSVTPEDTATYYCARHYGYDGGAFDFWGQGTTLTVSS
VL: DIQMTQSPASLSASVGETVTITCRTSENIYNYLVWYQQKQGKSPQLLVYNAKTLEEGVPSRFSGSGSGTQFSLKVNSLQPEDFGSYYCQHHYGTPFTFGSGTKLEIK
B4: antibody 38F5 (antibody, V domains shown)
VH: EVMLVESGGALVKPGGSLKLSCTASGFTFSNYAMSWVRQTPEKRLEWVAQTISSGGRYTYYPDSVKGRFTISRDNARNTLYLQMSSLRSEDTAMYYCVRRYYGNSYWYFDVWGAGTTVTVSS
VL: DIVMTQSPSSLSVSAGEKVTMNCKSSQSLLNSGNQKHYLTWYQQKPGQPPKLLIYGASTRGSGVPDRFTGSGSGTDFTLTISSVQAEDLAVYYCQNDHSYPYTFGGGTKLEIK
B5: antibody 38G10 (antibody, V domains shown)
VH: EVQLQQSGPELVKPGDSVKMSCKASGYTFTDFYMDWVKQSHGKSLEWIGYIYPHNGGTTYNQNFTGKATLTVDKSSNTAYMELHSLTSEDSAVYYCARRGGFDFDYWGQGTTLTVSS
VL: NIVMTQSPKSMSLSVGERVTLRCKASENVDTYVSWYQQKPEQSPKLLIYGASNRYTGVPDRFTGSGSATEFTLTISSVQAEDLVGYHCGQSHSYPLTFGAGTKLELK
B6: antibody 3G8 (antibody, V domains shown)
VH: EIQLQQSGAELVKPGASVKISCMASGYSFTGYNMNWVKQSHGKGLEWIGNINPYYDSTSYNQKFKGKATLTVDKSSSTAYMQLNSLTSEDSAVYYCARENYDFVGFAYWGQGTLVTVSA
VL: QIVLSQSPAILSASPGEKVTMTCRASSSVSYMHWFQQKPGSSPKPWIYVTSNLASGVPPRFSGSGSGTSYSLTISRVEAEDAATYYCQQWSTNPLTFGAGTKLELK

Legend:
Assay in all cases: binding screen of Example 5; method and unit not stated
[1] = target: C3c (UniProt P01024)
[2] = target: iC3b (UniProt P01024)
[3] = target: C3b (human) (UniProt P01024)
Chain of C3b (human) (P01024 23-667 limits assumed, chain 1 of 2): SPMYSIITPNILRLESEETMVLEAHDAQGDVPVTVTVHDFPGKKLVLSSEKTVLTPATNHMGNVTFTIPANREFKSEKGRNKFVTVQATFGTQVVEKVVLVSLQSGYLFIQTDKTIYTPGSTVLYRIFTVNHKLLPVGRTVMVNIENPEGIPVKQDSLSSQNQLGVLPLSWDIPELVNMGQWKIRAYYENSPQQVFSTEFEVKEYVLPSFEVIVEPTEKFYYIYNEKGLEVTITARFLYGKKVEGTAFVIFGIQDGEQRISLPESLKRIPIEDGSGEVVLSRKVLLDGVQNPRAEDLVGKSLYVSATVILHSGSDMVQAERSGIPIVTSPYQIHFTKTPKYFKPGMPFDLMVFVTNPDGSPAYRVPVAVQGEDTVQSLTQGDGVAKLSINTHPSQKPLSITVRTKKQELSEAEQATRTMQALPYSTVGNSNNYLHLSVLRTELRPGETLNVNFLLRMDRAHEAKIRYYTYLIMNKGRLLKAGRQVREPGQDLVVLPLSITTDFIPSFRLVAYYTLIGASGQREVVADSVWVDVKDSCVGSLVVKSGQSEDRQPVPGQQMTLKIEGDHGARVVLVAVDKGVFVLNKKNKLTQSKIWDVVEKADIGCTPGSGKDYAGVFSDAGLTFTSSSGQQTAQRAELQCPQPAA
Chain of C3b (human) (P01024 749-1663 limits assumed, chain 2 of 2): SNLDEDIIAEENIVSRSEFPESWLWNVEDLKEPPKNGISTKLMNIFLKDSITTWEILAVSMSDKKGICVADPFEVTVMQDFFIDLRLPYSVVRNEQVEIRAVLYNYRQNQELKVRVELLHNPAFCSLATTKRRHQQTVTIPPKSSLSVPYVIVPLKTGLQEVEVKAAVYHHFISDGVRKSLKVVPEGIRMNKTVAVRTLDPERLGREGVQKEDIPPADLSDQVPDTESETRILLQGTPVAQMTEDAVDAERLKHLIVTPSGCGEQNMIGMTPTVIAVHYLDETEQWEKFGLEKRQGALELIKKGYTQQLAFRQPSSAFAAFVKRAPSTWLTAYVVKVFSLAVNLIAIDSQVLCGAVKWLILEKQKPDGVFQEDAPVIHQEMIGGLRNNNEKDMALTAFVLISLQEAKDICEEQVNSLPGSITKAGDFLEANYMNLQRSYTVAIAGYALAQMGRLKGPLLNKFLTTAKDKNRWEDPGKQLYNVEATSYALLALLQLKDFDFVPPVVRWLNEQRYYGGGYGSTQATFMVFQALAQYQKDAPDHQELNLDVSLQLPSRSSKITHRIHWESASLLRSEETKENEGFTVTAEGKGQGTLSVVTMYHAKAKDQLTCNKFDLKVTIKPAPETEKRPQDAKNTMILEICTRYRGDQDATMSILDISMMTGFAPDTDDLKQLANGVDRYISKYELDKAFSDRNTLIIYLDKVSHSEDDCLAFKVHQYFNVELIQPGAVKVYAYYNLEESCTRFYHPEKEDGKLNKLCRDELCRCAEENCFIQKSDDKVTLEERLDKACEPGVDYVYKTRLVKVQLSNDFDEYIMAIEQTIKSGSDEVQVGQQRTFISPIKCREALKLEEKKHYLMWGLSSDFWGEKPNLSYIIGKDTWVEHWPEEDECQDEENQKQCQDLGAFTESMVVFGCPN

Row | binding relative to negative control mIgG2 [1] | binding relative to negative control mIgG2 [2] | binding relative to negative control mIgG2 [3] | Binder
1 | 0.43 | 0.49 |  | B1
2 | 0.17 | 0.29 |  | B2
3 | 0.55 | 0.72 |  | B3
4 | 0.45 | 0.45 |  | B4
5 | 0.13 | 0.06 | 0.06 | B5
6 | 0.22 | 0.25 |  | B6
